Measurements published in patent publication US10800813 (Bicycle, dated 2020).
Where two headings read alike, the source gives them in different places. Numbered stars: 1 amine (or outer) side, 2 acyl side, 3 side chain; on linkers, the order of the positions; unused ones are H or OH. Bridge positions count the residues as written; N and C are the ends. Square brackets hold non-standard residues; d marks the D form. Ends that are not written are not given here. 1Nal = N[C@@H](Cc1cccc2ccccc12)C(=O)O; TBMB = c1c(C[*:1])cc(C[*:3])cc1C[*:2]; 3Pal = N[C@@H](Cc1cccnc1)C(=O)O; 4Pal = N[C@@H](Cc1ccncc1)C(=O)O; Cha = N[C@@H](CC1CCCCC1)C(=O)O

Key:
human plasma Kallikrein [1] = biological target: T1, human plasma Kallikrein (human, UniProt P03952 20-638, limits assumed); experiment: enzyme inhibition assay
T1 construct: also called hPK; human PK

[2] = biological target: T2, biotinylated human plasma Kallikrein (human, UniProt P03952 20-638, biotinylated); experiment: phage binding assay
T2 construct: also called Biotinylated hPK
Method: (§1) Library transformant colonies, or selection output colonies, were picked and grown as individual cultures in 2TY broth containing selective antibiotic. The picked colonies were DNA-sequenced using a QIAgen PyroMark Q96 DNA sequencer to reveal the amino-acid substitution present in each clone, and were assayed for human plasma Kallikrein binding as follows. The phage-containing supernatant was harvested from the culture and phage were cyclised with tris bromomethyl benzene(TBMB) based on the methods of Heinis et al (Nature Chemical Biology vol. 5 pp 502-507 (2009)). The purified phage from this process were assayed for binding to biotinylated human plasma Kallikrein using a homogeneous plate-based binding assay; assay read-out measured on a BMG Labtech Pherastar FS plate reader. The quantitative binding data from duplicate assay samples was averaged (mean) and expressed as signal:background. […] The assay data was correlated with the peptide sequences.
A library was constructed where positions 1, 6, 7, 8, 9 &10 of 06-34-03 were fixed and positions 2, 3, 4 & 5 were randomised (see 'Randomisation of peptide domains—Library construction' in Methods above). Selections against human plasma Kallikrein were performed at a variety of stringencies (see 'Phage selections' in Methods above). All output sequences were identified and analysed for target binding (see 'Randomisation of peptide domains—Assay of binding of individual clones' in Methods above). Table 17 lists each unique sequence, its relative abundance in the selection output (frequency), and a rank number according to target binding strength.

human plasma Kallikrein [3] = biological target: T1, human plasma Kallikrein; experiment: enzyme inhibition assay; remark: listed apart in the source
[4] = biological target: T2, biotinylated human plasma Kallikrein; experiment: phage binding assay, signal:background
Method: as §1
Selections against human plasma Kallikrein were performed with this library in order to study the non-WPAR (SEQ ID NO: 18) determinants of Kallikrein binding, and to isolate the optimal WPAR (SEQ ID NO: 18)-containing peptide sequence.

T1 sequence (P03952 20-638 limits assumed): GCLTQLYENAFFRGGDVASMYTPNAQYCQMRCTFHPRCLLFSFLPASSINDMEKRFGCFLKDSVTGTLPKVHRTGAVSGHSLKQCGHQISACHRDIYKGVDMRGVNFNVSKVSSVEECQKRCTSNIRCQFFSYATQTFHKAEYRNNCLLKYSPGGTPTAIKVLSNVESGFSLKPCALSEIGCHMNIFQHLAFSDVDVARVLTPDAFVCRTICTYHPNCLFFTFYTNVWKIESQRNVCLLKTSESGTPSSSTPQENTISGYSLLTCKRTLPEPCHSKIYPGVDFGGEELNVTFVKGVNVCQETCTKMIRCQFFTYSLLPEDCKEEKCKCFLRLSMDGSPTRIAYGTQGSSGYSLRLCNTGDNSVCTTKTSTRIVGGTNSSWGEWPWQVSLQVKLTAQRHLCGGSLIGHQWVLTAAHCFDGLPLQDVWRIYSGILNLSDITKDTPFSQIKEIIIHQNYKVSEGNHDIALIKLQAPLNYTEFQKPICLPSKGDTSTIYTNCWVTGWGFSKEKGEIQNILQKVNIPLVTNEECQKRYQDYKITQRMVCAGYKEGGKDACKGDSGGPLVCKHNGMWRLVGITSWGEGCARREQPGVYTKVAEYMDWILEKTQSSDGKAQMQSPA
T2 sequence (P03952 20-638 limits assumed): as above

ACAWPAKCLTRELCA (linker 2-8-14 via TBMB, also called PK103) [1B1]
Ki (human plasma Kallikrein [1]): 8.1 nM

CSLFDHCTHQDLC (linker 1-7-13 via TBMB) [SEQ ID NO 112]
Rank (by Kallikrein binding) [2]: 40

CSHRRWCTHQDLC (linker 1-7-13 via TBMB) [SEQ ID NO 113]
Rank (by Kallikrein binding) [2]: 41

ACRWPARCLTTSLCA (linker 2-8-14 via TBMB; not fully specified (N-terminus, C-terminus), also called PK102) [06-59]
Ki (human plasma Kallikrein [1]): 0.5 nM

Ac-CS[3Pal]PYRCLHQDLC-NH2 (linker 1-7-13 via TBMB) [Ac-(06-34-18) 3Pal2 Tyr4]
Ki (human plasma Kallikrein [3]): 0.91 nM

Ac-CS[Cha]PYRCLHQDLC-NH2 (linker 1-7-13 via TBMB) [Ac-(06-34-18) Cha2 Tyr4]
Ki (human plasma Kallikrein [3]): 1.87 nM

Ac-CS[4Pal]PYRCLHQDLC-NH2 (linker 1-7-13 via TBMB) [Ac-(06-34-18) 4Pal2 Tyr4]
Ki (human plasma Kallikrein [3]): 3.56 nM

B1: Ac-(06-34-18) Phe2 1Nal4 (peptide)
peptide: Ac-CSFP[1Nal]RCLHQDLC-NH2
modifications: linker 1-7-13 via TBMB
SMILES: CC(=O)N[C@H]1CSCc2cc3cc(c2)CSC[C@H](NC(=O)[C@H](CCCNC(=N)N)NC(=O)[C@H](Cc2cccc4ccccc24)NC(=O)[C@@H]2CCCN2C(=O)[C@H](Cc2ccccc2)NC(=O)[C@H](CO)NC1=O)C(=O)N[C@@H](CC(C)C)C(=O)N[C@@H](Cc1c[nH]cn1)C(=O)N[C@@H](CCC(N)=O)C(=O)N[C@@H](CC(=O)O)C(=O)N[C@@H](CC(C)C)C(=O)N[C@H](C(N)=O)CSC3
Ki (human plasma Kallikrein [3]): 13.5 nM

ACGVPYRCTHQEMCA (linker 2-8-14 via TBMB; not fully specified (N-terminus, C-terminus), also called PK111) [06-64 T]
Ki (human plasma Kallikrein [1]): 6.9 nM

ACSWPYRCLHQDYCA (linker 2-8-14 via TBMB; not fully specified (N-terminus, C-terminus), also called PK109) [06-61]
Ki (human plasma Kallikrein [1]): 5.8 nM

ACSWPARCNHQDLCA (linker 2-8-14 via TBMB; not fully specified (N-terminus, C-terminus), also called PK105) [06-57]
Ki (human plasma Kallikrein [1]): 0.4 nM

CSWPARCTHQDLC (linker 1-7-13 via TBMB) [SEQ ID NO 73]
Binding assay signal [4]: 110
Rank (by Kallikrein binding) [2]: 1

CSFPWRCTHQDLC (linker 1-7-13 via TBMB) [SEQ ID NO 95]
Rank (by Kallikrein binding) [2]: 23

CSWLARCTHQDLC (linker 1-7-13 via TBMB) [SEQ ID NO 76]
Rank (by Kallikrein binding) [2]: 4

CSYPIRCTHQDLC (linker 1-7-13 via TBMB) [SEQ ID NO 90]
Rank (by Kallikrein binding) [2]: 18

CSYPFRCTHQDLC (linker 1-7-13 via TBMB) [SEQ ID NO 93]
Rank (by Kallikrein binding) [2]: 21

CSWPYRCTHQDLC (linker 1-7-13 via TBMB) [SEQ ID NO 82]
Rank (by Kallikrein binding) [2]: 10

CSFPYKCTHQDLC (linker 1-7-13 via TBMB) [SEQ ID NO 94]
Rank (by Kallikrein binding) [2]: 22

CSWQARCTHQDLC (linker 1-7-13 via TBMB) [SEQ ID NO 114]
Rank (by Kallikrein binding) [2]: 42

CSFPIRCTHQDLC (linker 1-7-13 via TBMB) [SEQ ID NO 87]
Rank (by Kallikrein binding) [2]: 15

CRFPFKCTHQDLC (linker 1-7-13 via TBMB) [SEQ ID NO 83]
Rank (by Kallikrein binding) [2]: 11

CSWPFRCTHQDLC (linker 1-7-13 via TBMB) [SEQ ID NO 86]
Rank (by Kallikrein binding) [2]: 14

CSFPYRCTHQDLC (linker 1-7-13 via TBMB) [SEQ ID NO 77]
Rank (by Kallikrein binding) [2]: 5

CSHPFRCTHQDLC (linker 1-7-13 via TBMB) [SEQ ID NO 81]
Rank (by Kallikrein binding) [2]: 9

CSFPFKCTHQDLC (linker 1-7-13 via TBMB) [SEQ ID NO 78]
Rank (by Kallikrein binding) [2]: 6

CSWWARCTHQDLC (linker 1-7-13 via TBMB) [SEQ ID NO 99]
Rank (by Kallikrein binding) [2]: 27

CSWAARCTHQDLC (linker 1-7-13 via TBMB) [SEQ ID NO 79]
Rank (by Kallikrein binding) [2]: 7

CSWSARCTHQDLC (linker 1-7-13 via TBMB) [SEQ ID NO 91]
Rank (by Kallikrein binding) [2]: 19

CSYPYRCTHQDLC (linker 1-7-13 via TBMB) [SEQ ID NO 98]
Rank (by Kallikrein binding) [2]: 26

CSWPSRCTHQDLC (linker 1-7-13 via TBMB) [SEQ ID NO 74]
Rank (by Kallikrein binding) [2]: 2

CSHPYRCTHQDLC (linker 1-7-13 via TBMB) [SEQ ID NO 80]
Rank (by Kallikrein binding) [2]: 8

CSWHARCTHQDLC (linker 1-7-13 via TBMB) [SEQ ID NO 96]
Rank (by Kallikrein binding) [2]: 24

B2: Ac-(06-34-18) Phe2 Cha4 (peptide)
peptide: Ac-CSFP[Cha]RCLHQDLC-NH2
modifications: linker 1-7-13 via TBMB
SMILES: CC(=O)N[C@H]1CSCc2cc3cc(c2)CSC[C@H](NC(=O)[C@H](CCCNC(=N)N)NC(=O)[C@H](CC2CCCCC2)NC(=O)[C@@H]2CCCN2C(=O)[C@H](Cc2ccccc2)NC(=O)[C@H](CO)NC1=O)C(=O)N[C@@H](CC(C)C)C(=O)N[C@@H](Cc1c[nH]cn1)C(=O)N[C@@H](CCC(N)=O)C(=O)N[C@@H](CC(=O)O)C(=O)N[C@@H](CC(C)C)C(=O)N[C@H](C(N)=O)CSC3
Ki (human plasma Kallikrein [3]): 0.91 nM

Ac-CSFP[3Pal]RCLHQDLC-NH2 (linker 1-7-13 via TBMB) [Ac-(06-34-18) Phe2 3Pal4]
Ki (human plasma Kallikrein [3]): 2.57 nM

ACTWPARCTHQNWCA (linker 2-8-14 via TBMB; not fully specified (N-terminus, C-terminus), also called PK107) [06-09]
Ki (human plasma Kallikrein [1]): 1.2 nM

ACTWPARCTMQNWCA (linker 2-8-14 via TBMB, also called PK108) [06-A2*]
Ki (human plasma Kallikrein [1]): 181 nM

ACNWPYRCLHTDLCA (linker 2-8-14 via TBMB; not fully specified (N-terminus, C-terminus), also called PK110) [06-157]
Ki (human plasma Kallikrein [1]): 3.3 nM

ACADPWACLFRRPCA (linker 2-8-14 via TBMB; not fully specified (N-terminus, C-terminus), also called PK113) [06-63 T]
Ki (human plasma Kallikrein [1]): 1280 nM

ACGGYNNCRAFSYCA (linker 2-8-14 via TBMB, also called PK115) [1F7]
Ki (human plasma Kallikrein [1]): 2.2 nM

B3: Ac-(06-34-18) Phe2 4Pal4 (peptide)
peptide: Ac-CSFP[4Pal]RCLHQDLC-NH2
modifications: linker 1-7-13 via TBMB
SMILES: CC(=O)N[C@H]1CSCc2cc3cc(c2)CSC[C@H](NC(=O)[C@H](CCCNC(=N)N)NC(=O)[C@H](Cc2ccncc2)NC(=O)[C@@H]2CCCN2C(=O)[C@H](Cc2ccccc2)NC(=O)[C@H](CO)NC1=O)C(=O)N[C@@H](CC(C)C)C(=O)N[C@@H](Cc1c[nH]cn1)C(=O)N[C@@H](CCC(N)=O)C(=O)N[C@@H](CC(=O)O)C(=O)N[C@@H](CC(C)C)C(=O)N[C@H](C(N)=O)CSC3
Ki (human plasma Kallikrein [3]): 2.2 nM
